Experimental data taken from the Immune Epitope Database (IEDB).

What was measured:
HLA-A*02:01 [1] = assay: IEDB peptide-MHC binding, purified MHC/competitive/radioactivity; ≥ and ≤ were set here for values at or beyond the usual limits of such assays
HLA-A*01:01 = assay: IEDB peptide-MHC binding, purified MHC/direct/fluorescence; filed as Kd, often an IC50 or EC50 that approximates it; ≥ and ≤ were set here for values at or beyond the usual limits of such assays
HLA-A*02:01 [2] = assay: as above
HLA-A*03:01 = assay: as above
HLA-A*26:01 = assay: as above
HLA-A*31:01 [3] = assay: as above
HLA-A*69:01 = assay: as above
HLA-B*08:01 [4] = assay: as above
HLA-B*08:02 = assay: as above
HLA-B*15:09 [5] = assay: as above
HLA-B*15:17 = assay: as above
HLA-B*27:05 = assay: as above
HLA-B*38:01 = assay: as above
HLA-B*39:01 [6] = assay: as above
HLA-B*40:01 [7] = assay: as above
HLA-B*46:01 [8] = assay: as above
HLA-B*48:01 = assay: as above
HLA-B*57:01 [9] = assay: as above
HLA-B*58:01 = assay: as above
HLA-A*11:01 [10] = assay: IEDB peptide-MHC binding, purified MHC/competitive/fluorescence; filed as Kd, often an IC50 or EC50 that approximates it; ≥ and ≤ were set here for values at or beyond the usual limits of such assays; conditions: source organism: Influenza A virus (A/duck/Hong Kong/3096/99(H6N2))
HLA-B*15:01 [11] = assay: as above
HLA-A*11:01 [12] = assay: IEDB peptide-MHC binding, purified MHC/direct/fluorescence; filed as Kd, often an IC50 or EC50 that approximates it; ≥ and ≤ were set here for values at or beyond the usual limits of such assays; conditions: source organism: Mycobacterium tuberculosis
HLA-B*15:01 [13] = assay: as above; conditions: source organism: Mycobacterium tuberculosis
HLA-B*18:01 = assay: as above; conditions: source organism: Mycobacterium tuberculosis
HLA-B*15:09 [14] = assay: IEDB peptide-MHC binding, purified MHC/competitive/fluorescence; filed as Kd, often an IC50 or EC50 that approximates it; ≥ and ≤ were set here for values at or beyond the usual limits of such assays; conditions: source organism: Mycobacterium tuberculosis str. Haarlem
HLA-A*02:01 [15] = assay: as above; conditions: source organism: Shigella boydii CDC 3083-94
HLA-B*07:02 = assay: as above; conditions: source organism: Shigella boydii CDC 3083-94
HLA-B*39:01 [16] = assay: as above; conditions: source organism: Shigella boydii CDC 3083-94
HLA-B*40:01 [17] = assay: as above
HLA-B*51:01 = assay: IEDB peptide-MHC binding, purified MHC/direct/fluorescence; filed as Kd, often an IC50 or EC50 that approximates it; ≥ and ≤ were set here for values at or beyond the usual limits of such assays; conditions: source organism: Mycobacterium tuberculosis
HLA-A*31:01 [18] = assay: IEDB peptide-MHC binding, purified MHC/competitive/fluorescence; filed as Kd, often an IC50 or EC50 that approximates it; ≥ and ≤ were set here for values at or beyond the usual limits of such assays; conditions: source organism: Mycobacterium tuberculosis variant bovis BCG str. Pasteur 1173P2
HLA-B*08:01 [19] = assay: as above; conditions: source organism: Mycobacterium tuberculosis variant bovis BCG str. Pasteur 1173P2
HLA-B*57:01 [20] = assay: as above; conditions: source organism: Mycobacterium tuberculosis variant bovis BCG str. Pasteur 1173P2
HLA-A*02:01 [21] = assay: IEDB peptide-MHC binding, purified MHC/competitive/radioactivity; filed as Kd, often an IC50 or EC50 that approximates it; ≥ and ≤ were set here for values at or beyond the usual limits of such assays; conditions: source organism: Homo sapiens
HLA-A*26:02 = assay: IEDB peptide-MHC binding, purified MHC/direct/fluorescence; filed as Kd, often an IC50 or EC50 that approximates it; ≥ and ≤ were set here for values at or beyond the usual limits of such assays
HLA-C*12:03 = assay: as above
HLA-B*46:01 [22] = assay: IEDB peptide-MHC binding, purified MHC/competitive/fluorescence; filed as Kd, often an IC50 or EC50 that approximates it; ≥ and ≤ were set here for values at or beyond the usual limits of such assays; conditions: source organism: Giardia lamblia ATCC 50803
HLA-C*06:02 = assay: IEDB peptide-MHC binding, purified MHC/direct/fluorescence; filed as Kd, often an IC50 or EC50 that approximates it; ≥ and ≤ were set here for values at or beyond the usual limits of such assays; conditions: source organism: Yellow fever virus
HLA-C*07:02 = assay: as above; conditions: source organism: Yellow fever virus
HLA-C*14:02 = assay: as above; conditions: source organism: Yellow fever virus
HLA-C*15:02 = assay: as above; conditions: source organism: Yellow fever virus
[23] = source organism: Influenza A virus (A/swine/Miyagi/5/2003(H1N2))
[24] = source organism: Influenza A virus(A/swine/Shandong/fZC/2003(H9N2))
[25] = source organism: Mycobacterium tuberculosis
[26] = source organism: Mycobacterium tuberculosis str. Haarlem
[27] = source organism: Shigella boydii CDC 3083-94
[28] = source organism: Escherichia coli 536
[29] = source organism: Giardia lamblia ATCC 50803
[30] = source organism: Yellow fever virus

In the case of FLPADFFPSI, the IC50 (HLA-A*02:01 [1]; source organism: Hepatitis B virus) is reported as 16 nM.
GTEKLTITY was tested, and the Kd (HLA-A*01:01; [23]) was 0.0083 µM, the Kd (HLA-A*02:01 [2]; [23]) was at least 20 µM and the Kd (HLA-A*03:01; [23]) was at least 20 µM. It also gave a Kd (HLA-A*26:01; [24]) of at least 20 µM, a Kd (HLA-A*31:01 [3]; [23]) of at least 20 µM and a Kd (HLA-A*69:01; [23]) of at least 20 µM. It also gave a Kd (HLA-B*08:01 [4]; [24]) of at least 20 µM, a Kd (HLA-B*08:02; [24]) of at least 20 µM and a Kd (HLA-B*15:09 [5]; [24]) of at least 20 µM. The Kd (HLA-B*15:17; [23]) was 0.0065 µM, the Kd (HLA-B*27:05; [23]) was at least 20 µM and the Kd (HLA-B*38:01; [24]) was at least 20 µM. The Kd (HLA-B*39:01 [6]; [24]) was at least 20 µM, the Kd (HLA-B*40:01 [7]; [23]) was at least 20 µM and the Kd (HLA-B*46:01 [8]; [23]) was at least 20 µM. It also gave a Kd (HLA-B*48:01; [23]) of at least 20 µM, a Kd (HLA-B*57:01 [9]; [23]) of at least 20 µM and a Kd (HLA-B*58:01; [23]) of at least 20 µM. For the same sequence, the Kd (HLA-A*11:01 [10]) was at least 20 µM and the Kd (HLA-B*15:01 [11]; source organism: Influenza A virus (A/duck/Hong Kong/3096/99(H6N2))) was at least 20 µM.
Work on IPAPGLGAL yielded a Kd (HLA-A*01:01; [25]) of at least 20 µM, a Kd (HLA-A*02:01 [2]; [25]) of at least 20 µM and a Kd (HLA-A*03:01; [25]) of at least 20 µM. For the same sequence, the Kd (HLA-A*11:01 [12]) was at least 20 µM, the Kd (HLA-A*26:01; [26]) was 11.1 µM and the Kd (HLA-A*31:01 [3]; [25]) was at least 20 µM. It also gave a Kd (HLA-A*69:01; [25]) of 0.24 µM, a Kd (HLA-B*08:01 [4]; [26]) of at least 20 µM and a Kd (HLA-B*15:01 [13]) of at least 20 µM. The Kd (HLA-B*15:17; [25]) was at least 20 µM, the Kd (HLA-B*18:01) was at least 20 µM and the Kd (HLA-B*27:05; [25]) was at least 20 µM. It also gave a Kd (HLA-B*40:01 [7]; [25]) of at least 20 µM, a Kd (HLA-B*46:01 [8]; [25]) of at least 20 µM and a Kd (HLA-B*48:01; [25]) of at least 20 µM. The Kd (HLA-B*57:01 [9]; [25]) was at least 20 µM, the Kd (HLA-B*58:01; [25]) was at least 20 µM and the Kd (HLA-B*15:09 [14]) was 4.06 µM.
QEPGIFCAI showed a Kd (HLA-A*02:01 [15]) of 116 nM, a Kd (HLA-B*07:02) of at least 20 µM and a Kd (HLA-B*15:01 [11]; [27]) of at least 20 µM. The Kd (HLA-B*39:01 [16]) was 496 nM and the Kd (HLA-B*40:01 [17]; [27]) was 10.5 nM.
With RIRSERPAF the Kd (HLA-A*01:01; [25]) was at least 20 µM, the Kd (HLA-A*02:01 [2]; [25]) was at least 20 µM and the Kd (HLA-A*03:01; [26]) was 0.381 µM. The Kd (HLA-A*11:01 [12]) was at least 20 µM, the Kd (HLA-A*69:01; [25]) was at least 20 µM and the Kd (HLA-B*15:01 [13]) was 0.0278 µM. It also gave a Kd (HLA-B*15:09 [5]; [26]) of at least 20 µM, a Kd (HLA-B*18:01) of at least 20 µM and a Kd (HLA-B*27:05; [25]) of at least 20 µM. For the same sequence, the Kd (HLA-B*39:01 [6]; [26]) was at least 20 µM, the Kd (HLA-B*40:01 [7]; [25]) was at least 20 µM and the Kd (HLA-B*46:01 [8]; [25]) was at least 20 µM. For the same sequence, the Kd (HLA-B*48:01; [25]) was at least 20 µM, the Kd (HLA-B*51:01) was at least 20 µM and the Kd (HLA-B*58:01; [25]) was at least 20 µM. For the same sequence, the Kd (HLA-A*31:01 [18]) was 982 nM, the Kd (HLA-B*08:01 [19]) was 2250 nM and the Kd (HLA-B*57:01 [20]) was 935 nM.
RQASIELPSMAV gave an IC50 (HLA-A*02:01 [1]; source organism: Homo sapiens) of 1770 nM.
With SLYNAVATL the IC50 (HLA-A*02:01 [1]; source organism: Human immunodeficiency virus 1) was 29 nM.
In the case of VPRDRNGTF, the Kd (HLA-A*01:01; [25]) is reported as at least 20 µM, the Kd (HLA-A*02:01 [2]; [25]) is reported as at least 20 µM and the Kd (HLA-A*03:01; [25]) is reported as at least 20 µM. For the same sequence, the Kd (HLA-A*11:01 [12]) was at least 20 µM, the Kd (HLA-A*31:01 [3]; [25]) was at least 20 µM and the Kd (HLA-A*69:01; [25]) was at least 20 µM. The Kd (HLA-B*08:01 [4]; [26]) was 0.624 µM, the Kd (HLA-B*08:02; [26]) was 19 µM and the Kd (HLA-B*15:01 [13]) was at least 20 µM. For the same sequence, the Kd (HLA-B*15:09 [5]; [26]) was at least 20 µM, the Kd (HLA-B*15:17; [25]) was at least 20 µM and the Kd (HLA-B*18:01) was at least 20 µM. For the same sequence, the Kd (HLA-B*27:05; [25]) was at least 20 µM, the Kd (HLA-B*38:01; [26]) was at least 20 µM and the Kd (HLA-B*40:01 [7]; [25]) was at least 20 µM. For the same sequence, the Kd (HLA-B*46:01 [8]; [25]) was at least 20 µM, the Kd (HLA-B*48:01; [25]) was at least 20 µM and the Kd (HLA-B*51:01) was at least 20 µM. For the same sequence, the Kd (HLA-B*57:01 [9]; [25]) was at least 20 µM and the Kd (HLA-B*58:01; [25]) was at least 20 µM.
VVLSWAPPV gave an IC50 (HLA-A*02:01 [1]; source organism: Homo sapiens) of 2.5 nM and a Kd (HLA-A*02:01 [21]) of 8.4 nM.
For YEDEDIIVI, the Kd (HLA-B*15:01 [11]; [28]) was 3.5 µM and the Kd (HLA-B*40:01 [17]; [28]) was 4.3 nM.
YSAEALLPY was tested, and the Kd (HLA-A*26:01; [29]) was 0.009 µM, the Kd (HLA-A*26:02; [29]) was 3 nM and the Kd (HLA-C*12:03; [29]) was 13 nM. For the same sequence, the Kd (HLA-B*46:01 [22]) was 55.1 nM.
Work on YVIRDLAAM yielded a Kd (HLA-A*26:02; [30]) of at most 1 nM, a Kd (HLA-C*06:02) of at least 20 µM and a Kd (HLA-C*07:02) of 590 nM. It also gave a Kd (HLA-C*12:03; [30]) of 23 nM, a Kd (HLA-C*14:02) of 79 nM and a Kd (HLA-C*15:02) of 274 nM.
